Experimental findings from patent US20200399344A1 (SHATTUCK LABS, published 2020) are described below.

In assay [1] the target is T1, recombinant human CD2 protein (rhCD2-His) (human, UniProt P06729 25-209).
T1 construct: also called recombinant CD2 protein; not shown: His tag
T1 sequence (looked up): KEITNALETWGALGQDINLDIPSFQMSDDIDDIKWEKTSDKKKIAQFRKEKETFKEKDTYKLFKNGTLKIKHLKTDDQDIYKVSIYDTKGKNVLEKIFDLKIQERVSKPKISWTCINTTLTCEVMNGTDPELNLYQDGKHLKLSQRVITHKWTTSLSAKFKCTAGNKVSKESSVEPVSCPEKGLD
The assay can be described thus: ELISA: coat rhCD2-His (Acro CD2-H5226), detection Anti-mFc-HRP for mCD80. The protocol: (§1) Recombinant human CD2 (rhCD2) protein was coated on plates. Increasing amounts of the indicated chimeric proteins or Recombinant human CD58-Fc fusion protein (rhCD58-Fc) were added and detected using an anti-mFc-HRP (for mCD80-Fc-NKG2A) or anti-hFc-HRP (for rest of the proteins).
(§2) CD2 is a transmembrane protein in T cells that binds to its ligand CD58 on APC in humans and on CD48 in rodents. To understand whether the CD48 and CD58 parts of the hCD48-Fc-NKG2A, and hCD58-Fc-NKG2A chimeric protein can bind CD2, ELISA-based assays were performed. Briefly, recombinant human CD2 protein (rhCD2-His) was coated on plates and increasing amounts of the hCD48-Fc-NKG2A, hCD58-Fc-NKG2A, and mCD80-Fc-NKG2A chimeric proteins and recombinant hCD58-Fc protein was added to the plates for capture by the plate-bound recombinant CD2 protein. The […] chimeric protein served as a negative control and recombinant hCD58-Fc protein served as a positive control. The hCD48-Fc-NKG2A and hCD58-Fc-NKG2A, chimeric proteins and recombinant hCD58-Fc protein bound to the recombinant CD2 protein was detected using an anti-human Fc HRP. The mCD80-Fc-NKG2A chimeric protein bound to the recombinant CD2 protein was detected using an anti-mouse Fc HRP.

Assay [2] addresses T2, HLA class I histocompatibility antigen, alpha chain E (HLA-E), plate-bound recombinant protein (human, UniProt P13747 22-305, limits assumed).
T2 construct: no tag named there; also called recombinant HLA-E protein
The assay can be described thus: ELISA (single-sided): coat hHLA-E (NOVUS), detect Anti-mFc-HRP (Jax).

In assay [3] the target is T3, anti-mFc IgG antibody (plate-bound).
T3 construct: also called anti-Fc antibody
In words: Fc ELISA: coat Anti-mFc (Jax), detect Anti-mFc-HRP (Jax). From the text:
A mouse whole IgG was used to generate a standard curve.
For orientation: An ELISA detects its analyte on a solid surface through an enzyme-linked reagent.

Assay [4] deals with T4, recombinant human 2B4 protein (rh2B4-His) (human, UniProt Q9BZW8-2 22-221, limits assumed).
T4 construct: also called recombinant 2B4-His protein; not shown: His tag
T4 sequence (looked up): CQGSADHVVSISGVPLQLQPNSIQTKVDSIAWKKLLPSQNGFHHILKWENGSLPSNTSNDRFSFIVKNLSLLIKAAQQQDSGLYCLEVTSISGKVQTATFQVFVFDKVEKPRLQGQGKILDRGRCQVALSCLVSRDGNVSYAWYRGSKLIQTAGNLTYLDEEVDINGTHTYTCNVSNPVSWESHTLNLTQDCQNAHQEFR
The assay can be described thus: ELISA: coat rh2B4-His (Sino 10042-H08H), detection Anti-mFc-HRP for mCD80. The protocol: (§3) Increasing amounts of the indicated chimeric proteins or rhCD48-Fc were added and detected using an anti-mFc-HRP (for mCD80-Fc-NKG2A) or anti-hFc-HRP (for rest of the proteins).
(§4) CD48 is the ligand for 2B4. To understand whether the CD48 parts of the hCD48-Fc-NKG2A chimeric protein can bind 2B4, ELISA-based assays were performed. Briefly, recombinant human 2B4 protein (rh2B4-His) was coated on plates and increasing amounts of the hCD48-Fc-NKG2A and mCD80-Fc-NKG2A chimeric proteins and recombinant human CD48-Fc (rhCD48-Fc) protein was added to the plates for capture by the plate-bound recombinant 2B4 protein. The hCD48-Fc-NKG2A chimeric protein and recombinant human CD48-Fc (rhCD48-Fc) protein bound to the recombinant 2B4 protein was detected using an anti-human Fc HRP. The mCD80-Fc-NKG2A chimeric protein, which was used as a negative control, bound to the recombinant 2B4 protein was detected using an anti-mouse Fc HRP.

Assay [5] has as its target T5, mTGFβ1, recombinant, plate-bound (mouse, UniProt P04202 279-390, limits assumed).
T5 construct: also called recombinant TGFβ1 protein
The assay can be described thus: ELISA: coat mTGFB1 (R+D 7666-MB), detection Anti-mFc-HRP. The protocol: TGFβ1 is a ligand of TGFBR2. To understand whether the TGFBR2 part of the TGFBR2-Fc-NKG2A chimeric protein can bind TGFβ1, ELISA-based assays were performed. Briefly, recombinant TGFβ1 protein was coated on plates and increasing amounts of the TGFBR2-Fc-NKG2A chimeric protein was added to the plates for capture by the plate-bound recombinant TGFβ1 protein. The chimeric protein bound to the recombinant TGFβ1 protein was detected using an anti-mFc HRP.

Another assay concerns the target mCTLA-4, plate-bound (mouse, UniProt P09793 36-162, limits assumed). The assay can be described thus: ELISA (single-sided): coat mCTLA-4-Fc (Acro), detect Anti-mFc-HRP (Jax).
The next assay deals with T6, mCD28, plate-bound (mouse, UniProt P31041 20-149, limits assumed).
T6 sequence (looked up): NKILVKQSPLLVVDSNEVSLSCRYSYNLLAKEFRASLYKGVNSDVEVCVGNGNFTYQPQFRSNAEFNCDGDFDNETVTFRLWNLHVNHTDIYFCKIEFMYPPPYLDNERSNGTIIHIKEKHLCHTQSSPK
The assay can be described thus: ELISA (single-sided): coat mCD28-Fc (Acro), detect Anti-mFc-HRP (Jax).

The target in assay [6] is T4, recombinant human 2B4 protein …. In words: ELISA: coat rh2B4-His (Sino 10042-H08H), detection Anti-hFc-HRP. Here is the method:
as §3, §4

Assay [7] has as its target T7, recombinant HLA-E-His protein (human, UniProt P13747 22-305, limits assumed).
T7 construct: also called recombinant HLA-E (HLA-E-His); not shown: His tag
The assay can be described thus: ELISA: the chimeric protein is the titrated coat (1:3), detection HLA-E-His (Novus NBP2-47435PEP), HRP Anti-6x-His-HRP. Here is the method: In a complementary experiment, increasing amounts of the hCD48-Fc-NKG2A, hCD58-Fc-NKG2A, and hCD80-Fc-NKG2A chimeric proteins or a negative control protein was coated on plates. Recombinant HLA-E-His protein was added to the plates for capture by the plate-bound chimeric proteins or the negative control protein. The captured HLA-E-His protein was detected using an anti-6×-His-HRP antibody.

The target in assay [8] is T8, recombinant human 2B4-Fc fusion protein (rh2B4-Fc) (human, UniProt Q9BZW8-2 22-221, limits assumed).
T8 construct: not shown: Fc
T8 sequence (looked up): T4 sequence (looked up)
The assay can be described thus: dual ELISA; coat rh2B4-Fc (for SL-048), CD48-Fc-NKG2a titrated, detection HLA-E-His, Anti 6x-His-HRP; the signal needs both bindings. Here is the method:
(i) recombinant human 2B4-Fc fusion protein (rh2B4-Fc) was coated on plates. Increasing amounts of the hCD48-Fc-NKG2A or hCD86-Fc-NKG2A chimeric proteins were added and detected using HLA-E-His. The hCD86-Fc-NKG2A chimeric protein was used as a negative control (Negative control #1). […] (ii) recombinant human CD2-Fc fusion protein (rhCD2-Fc) was coated on plates. Increasing amounts of the hCD58-Fc-NKG2A or hCD86-Fc-NKG2A chimeric proteins were added and detected using HLA-E-His. The hCD86-Fc-NKG2A chimeric protein was used as a negative control (Negative control #2).
To understand whether the hCD48-Fc-NKG2A chimeric protein can bind simultaneously to both 2B4 and HLA-E, the following ELISA experiment was carried out. Briefly, and recombinant 2B4 (rh2B4-Fc) protein was coated on plates. Increasing amounts of the hCD48-Fc-NKG2A chimeric protein was added to the plates for capture by the recombinant human 2B4-Fc (rh2B4-Fc) protein. Further, recombinant HLA-E (HLA-E-His) protein was added to the plate for capture by hCD48-Fc-NKG2A chimeric proteins. The binding of the HLA-E-His protein was detected using an anti-His 6× HRP antibody.

In assay [9] the target is T1, recombinant human CD2 protein …. The assay can be described thus: ELISA: coat rhCD2-His (Acro CD2-H5226), detection Anti-hFc-HRP. The protocol: as §1, §2
Assay [10] has as its target T9, anti-human IgG antibody (plate-bound).
T9 construct: also called anti-human Fc antibody
The assay can be described thus: ELISA (single sided Fc): coat Anti-Human IgG (H+L) Jax# 109-005-088, detection HRP Goat anti-human FCgamma. The protocol:
In another set of experiments, an anti-human IgG antibody was coated on plates and increasing amounts of the hCD48-Fc-NKG2A, hCD58-Fc-NKG2A, and hCD80-Fc-NKG2A chimeric proteins, and a human IgG antibody were added to the plates for capture by the plate-bound […]. The human IgG antibody was used as a positive control and to generate a standard curve. The binding to the anti-human IgG antibody was detected using an anti-human Fcgamma HRP.

In assay [11] the target is T4, recombinant human 2B4 protein …. The assay can be described thus: ELISA: coat h2B4-His (Sino #10042-H08H), detection printed as Anti-mFc-HRP (Jax 115-036-003). Here is the method: (§5) CD48 binds 2B4 (CD244), a member of the signaling lymphocyte-activation molecule (SLAM) family. To understand whether the CD48 part of the hCD48-Fc-NKG2A chimeric protein can bind […], ELISA-based assays were performed. Briefly, recombinant 2B4-His protein was coated on plates. Human CD28-His protein coated on negative control plates. Increasing amounts of the hCD48-Fc-NKG2A chimeric protein was added to the plates for capture by the plate-bound recombinant 2B4-His protein. […]

The target in assay [12] is T10, recombinant human CD28-His (rhCD28-His) (human, UniProt P10747 19-152).
T10 construct: also called Human CD28-His protein; recombinant CD28 protein; not shown: His tag
The assay can be described thus: ELISA: coat hCD28-His (negative control coat), detection printed as Anti-mFc-HRP (Jax 115-036-003). Here is the method: as §5

Where “and” joins values, the source holds several entries; their conditions need not be identical. Identical values can stand only once.

T2 sequence (P13747 22-305 limits assumed): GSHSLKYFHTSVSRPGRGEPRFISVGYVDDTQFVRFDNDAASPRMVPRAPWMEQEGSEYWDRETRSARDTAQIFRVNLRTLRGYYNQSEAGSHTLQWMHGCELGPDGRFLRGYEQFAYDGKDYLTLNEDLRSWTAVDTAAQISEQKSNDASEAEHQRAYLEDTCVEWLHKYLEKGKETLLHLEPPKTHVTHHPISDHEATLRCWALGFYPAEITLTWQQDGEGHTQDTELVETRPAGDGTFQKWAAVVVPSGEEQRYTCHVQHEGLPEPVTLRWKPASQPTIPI
T7 sequence (P13747 22-305 limits assumed): as above
T5 sequence (P04202 279-390 limits assumed): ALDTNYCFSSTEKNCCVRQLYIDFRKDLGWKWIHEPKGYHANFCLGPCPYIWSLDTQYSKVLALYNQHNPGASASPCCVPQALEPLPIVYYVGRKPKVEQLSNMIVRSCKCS
T10 sequence (P10747 19-152 limits assumed): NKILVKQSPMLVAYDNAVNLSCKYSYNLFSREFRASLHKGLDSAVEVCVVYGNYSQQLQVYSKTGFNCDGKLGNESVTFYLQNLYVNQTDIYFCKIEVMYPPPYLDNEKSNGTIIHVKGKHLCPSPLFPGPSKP

B1: mouse CD80-Fc-NKG2A chimeric protein (Fc fusion)
chain: VDEQLSKSVKDKVLLPCRYNSPHEDESEDRIYWQKHDKVVLSVIAGKLKVWPEYKNRTLYDNTTYSLIILGLVLSDRGTYSCVVQKKERGTYEVKHLALVKLSIKADFSTPNITESGNPSADTKRITCFASGGFPKPRFSWLENGRELPGINTTISQDPESELYTISSQLDFNTTRNHTIKCLIKYGDAHVSEDFTWEKPPEDPPDSKNVPRDCGCKPCICTVPEVSSVFIFPPKPKDVLTITLTPKVTCVVVDISKDDPEVQFSWFVDDVEVHTAQTQPREEQFNSTFRSVSELPIMHQDWLNGKEFKCRVNSAAFPAPIEKTISKTKGRPKAPQVYTIPPPKEQMAKDKVSLTCMITDFFPEDITVEWQWNGQPAENYKNTQPIMDTDGSYFVYSKLNVQKSNWEAGNTFTCSVLHEGLHNHHTEKSLSHSPGIIEGRMDTPYTEAKAQINSSMTRTHRDINYTLSSAQPCPHCPKEWISYSHNCYFIGMERKSWNDSLVSCISKNCSLLYIDSEEEQDFLQSLSLISWTGILRKGRGQPWVWKEDSIFKPKIAEILHDECNCAMMSASGLTADNCTTLHPYLCKCKFPI
notes: also called mCD80-Fc-NKG2A; mCD80-Fc-NKG2a
One may read the EC50 as the concentration needed to bring the measured effect to its halfway point. Turning to B1, the binding result is “no binding (tested: log[Agonist] about 2.7, ug/ml)” in [1]; “no binding (tested: log[Agonist] about 2.7, ug/ml)” in assay [4]; “no binding (tested: log[Agonist] about 2.7, ug/ml)” in assay [5]. Further, the EC50 in assay [2] is 247 nM and 140 nM; in [3], 2.02 nM and 1.36 nM; with mCTLA-4, plate-bound, 0.958 nM and 0.705 nM; with mCD28, plate-bound, 30.8 nM and 22.6 nM.

B2: human CD48-Fc-NKG2A chimeric protein (Fc fusion)
chain: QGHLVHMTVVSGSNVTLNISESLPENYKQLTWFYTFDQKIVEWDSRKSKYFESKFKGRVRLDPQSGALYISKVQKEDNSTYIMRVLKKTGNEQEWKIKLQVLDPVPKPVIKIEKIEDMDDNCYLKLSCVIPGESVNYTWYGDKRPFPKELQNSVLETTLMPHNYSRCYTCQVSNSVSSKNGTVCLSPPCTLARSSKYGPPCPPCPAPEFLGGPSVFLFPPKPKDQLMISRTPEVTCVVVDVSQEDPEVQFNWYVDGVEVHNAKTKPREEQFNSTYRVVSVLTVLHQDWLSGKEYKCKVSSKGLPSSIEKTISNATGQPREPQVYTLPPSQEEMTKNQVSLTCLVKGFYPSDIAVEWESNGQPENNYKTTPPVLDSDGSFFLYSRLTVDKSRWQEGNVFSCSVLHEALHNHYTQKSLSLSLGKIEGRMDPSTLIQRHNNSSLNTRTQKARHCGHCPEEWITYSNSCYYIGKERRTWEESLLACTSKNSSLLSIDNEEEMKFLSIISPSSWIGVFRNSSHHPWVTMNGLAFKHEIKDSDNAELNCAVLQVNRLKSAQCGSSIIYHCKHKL
notes: also called hCD48-Fc-NKG2A
The EC50 (read off the curve) is the concentration giving half of the maximal effect. Regarding B2, the “EC50 (read off the curve)” value is roughly 2 µg/mL in assay [6]; roughly 2 µg/mL in assay [7]; roughly 50 µg/mL in assay [8]; roughly 0.7 µg/mL in assay [10]; roughly 2 µg/mL in [11]. Besides, the binding result in assay [9] was “binds”; in assay [12] it was “no binding (tested: log[Agonist] about 2.7, ug/ml)”.
